From IntAct's records for PubMed 35512704

B1: Speckle-type POZ protein (Homo sapiens), O43791 (parent)
chain: MSRVPSPPPPAEMSSGPVAESWCYTQIKVVKFSYMWTINNFSFCREEMGEVIKSSTFSSGANDKLKWCLRVNPKGLDEESKDYLSLYLLLVSCPKSEVRAKFKFSILNAKGEETKAMESQRAYRFVQGKDWGFKKFIRRDFLLDEANGLLPDDKLTLFCEVSVVQDSVNISGQNTMNMVKVPECRLADELGGLWENSRFTDCCLCVAGQEFQAHKAILAARSPVFSAMFEHEMEESKKNRVEINDVEPEVFKEMMCFIYTGKAPNLDKMADDLLAAADKYALERLKVMCEDALCSNLSVENAAEILILADLHSADQLKTQAVDFINYHASDVLETSGWKSMVVSHPHLVAEAYRSLASAQCPFLGPPRKRLKQS
partner: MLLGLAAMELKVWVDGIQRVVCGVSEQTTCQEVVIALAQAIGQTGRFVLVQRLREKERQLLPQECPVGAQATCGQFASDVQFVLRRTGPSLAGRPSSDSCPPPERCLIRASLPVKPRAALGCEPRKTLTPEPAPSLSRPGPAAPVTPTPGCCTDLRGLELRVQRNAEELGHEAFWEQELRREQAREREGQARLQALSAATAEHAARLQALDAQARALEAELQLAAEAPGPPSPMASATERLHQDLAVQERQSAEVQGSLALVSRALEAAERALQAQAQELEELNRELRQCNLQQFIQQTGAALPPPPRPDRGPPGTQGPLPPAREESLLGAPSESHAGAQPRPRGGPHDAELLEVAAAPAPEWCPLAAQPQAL
B2: Speckle-type POZ protein (Homo sapiens), O43791 (parent)
chain: B1 chain
partner: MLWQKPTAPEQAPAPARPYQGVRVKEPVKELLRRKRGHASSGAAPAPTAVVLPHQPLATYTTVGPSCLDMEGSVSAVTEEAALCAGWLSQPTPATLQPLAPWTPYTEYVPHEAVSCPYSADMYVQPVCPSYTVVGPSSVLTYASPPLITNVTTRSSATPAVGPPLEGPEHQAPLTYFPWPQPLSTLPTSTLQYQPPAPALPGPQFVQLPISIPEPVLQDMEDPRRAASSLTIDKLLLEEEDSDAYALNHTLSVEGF
B3: Speckle-type POZ protein (Homo sapiens), O43791 (parent)
chain: B1 chain
partner: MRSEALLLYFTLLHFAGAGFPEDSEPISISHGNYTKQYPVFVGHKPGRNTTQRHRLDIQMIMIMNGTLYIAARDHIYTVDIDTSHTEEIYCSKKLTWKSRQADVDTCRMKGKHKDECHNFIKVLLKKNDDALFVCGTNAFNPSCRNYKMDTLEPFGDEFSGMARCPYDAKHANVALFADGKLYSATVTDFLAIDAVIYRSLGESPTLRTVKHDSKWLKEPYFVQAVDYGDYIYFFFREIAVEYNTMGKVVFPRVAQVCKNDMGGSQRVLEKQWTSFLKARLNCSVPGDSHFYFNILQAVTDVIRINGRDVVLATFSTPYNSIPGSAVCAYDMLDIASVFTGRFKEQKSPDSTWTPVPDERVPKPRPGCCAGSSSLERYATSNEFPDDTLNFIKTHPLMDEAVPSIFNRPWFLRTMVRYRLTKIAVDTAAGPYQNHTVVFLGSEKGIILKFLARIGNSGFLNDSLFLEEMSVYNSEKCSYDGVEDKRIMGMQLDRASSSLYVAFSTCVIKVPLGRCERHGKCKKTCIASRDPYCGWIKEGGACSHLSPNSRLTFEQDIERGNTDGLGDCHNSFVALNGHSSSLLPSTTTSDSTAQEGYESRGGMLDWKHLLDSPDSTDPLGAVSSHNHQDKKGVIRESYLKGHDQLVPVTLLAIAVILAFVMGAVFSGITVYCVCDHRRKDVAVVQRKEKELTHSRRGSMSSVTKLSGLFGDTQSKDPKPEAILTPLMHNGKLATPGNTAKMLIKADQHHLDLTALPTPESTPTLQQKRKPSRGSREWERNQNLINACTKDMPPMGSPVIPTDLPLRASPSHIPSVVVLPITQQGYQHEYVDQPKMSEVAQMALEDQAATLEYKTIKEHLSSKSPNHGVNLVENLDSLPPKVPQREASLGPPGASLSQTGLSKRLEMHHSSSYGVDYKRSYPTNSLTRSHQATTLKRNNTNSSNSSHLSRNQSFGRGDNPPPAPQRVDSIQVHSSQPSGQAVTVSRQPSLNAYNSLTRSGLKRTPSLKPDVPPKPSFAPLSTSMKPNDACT
B4: Speckle-type POZ protein (Homo sapiens), O43791 (parent)
chain: B1 chain
partner: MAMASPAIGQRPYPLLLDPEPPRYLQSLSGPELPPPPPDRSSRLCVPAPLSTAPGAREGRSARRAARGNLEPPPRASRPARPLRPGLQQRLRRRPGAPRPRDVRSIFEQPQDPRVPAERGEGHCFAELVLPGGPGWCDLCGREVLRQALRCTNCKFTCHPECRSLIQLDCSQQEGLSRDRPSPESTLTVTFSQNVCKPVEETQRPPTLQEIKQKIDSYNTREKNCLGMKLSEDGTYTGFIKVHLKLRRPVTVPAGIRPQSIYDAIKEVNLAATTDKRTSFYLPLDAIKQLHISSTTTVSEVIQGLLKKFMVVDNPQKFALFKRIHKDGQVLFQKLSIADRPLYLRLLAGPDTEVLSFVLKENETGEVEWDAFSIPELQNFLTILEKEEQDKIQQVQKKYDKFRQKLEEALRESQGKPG
B5: Speckle-type POZ protein (Homo sapiens), O43791 (parent)
chain: B1 chain
partner: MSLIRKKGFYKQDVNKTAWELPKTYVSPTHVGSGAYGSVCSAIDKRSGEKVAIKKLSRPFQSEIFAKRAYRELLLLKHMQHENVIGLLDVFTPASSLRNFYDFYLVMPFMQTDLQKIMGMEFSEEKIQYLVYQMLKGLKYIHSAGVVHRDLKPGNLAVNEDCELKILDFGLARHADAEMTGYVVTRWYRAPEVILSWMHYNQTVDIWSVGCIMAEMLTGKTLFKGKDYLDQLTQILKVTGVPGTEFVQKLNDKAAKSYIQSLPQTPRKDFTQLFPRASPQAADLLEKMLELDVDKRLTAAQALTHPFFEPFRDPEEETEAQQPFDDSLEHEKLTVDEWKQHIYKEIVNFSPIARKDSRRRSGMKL
B6: Speckle-type POZ protein (Homo sapiens), O43791 (parent)
chain: B1 chain
partner: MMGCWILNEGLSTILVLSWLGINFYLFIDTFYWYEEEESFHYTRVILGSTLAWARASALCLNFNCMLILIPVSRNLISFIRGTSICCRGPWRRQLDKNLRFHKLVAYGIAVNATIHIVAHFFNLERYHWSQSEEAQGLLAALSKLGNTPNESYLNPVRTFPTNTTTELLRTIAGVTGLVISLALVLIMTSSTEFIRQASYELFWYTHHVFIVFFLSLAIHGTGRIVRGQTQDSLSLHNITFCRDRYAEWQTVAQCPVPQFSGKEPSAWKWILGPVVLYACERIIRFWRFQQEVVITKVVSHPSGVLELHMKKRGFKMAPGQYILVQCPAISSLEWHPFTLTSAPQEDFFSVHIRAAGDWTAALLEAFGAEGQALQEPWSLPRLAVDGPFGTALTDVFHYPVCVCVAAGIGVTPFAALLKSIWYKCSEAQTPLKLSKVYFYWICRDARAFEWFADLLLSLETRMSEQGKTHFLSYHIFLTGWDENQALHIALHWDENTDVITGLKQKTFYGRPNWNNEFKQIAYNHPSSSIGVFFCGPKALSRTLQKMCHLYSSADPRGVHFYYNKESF
B7: Speckle-type POZ protein (Homo sapiens), O43791 (parent)
chain: B1 chain
partner: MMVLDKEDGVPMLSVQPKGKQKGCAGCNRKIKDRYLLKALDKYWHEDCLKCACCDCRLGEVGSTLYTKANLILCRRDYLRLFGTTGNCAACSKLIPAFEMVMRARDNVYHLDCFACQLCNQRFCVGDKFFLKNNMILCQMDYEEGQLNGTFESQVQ

Variants of: B1
Settings: with rasf7_human RASSF7, Q02833

Variant | effect of a mutation on the interaction
F133V | with no effect

Variants of: B1
Settings: with rasf7_human RASSF7, Q02833
Remark: another data set of the same source

Variant | effect of a mutation on the interaction
F102C | with no effect

Variants of: B2
Settings: with obf1_human POU2AF1, Q16633

Variant | effect of a mutation on the interaction
F133L | with no effect

Variants of: B2
Settings: with obf1_human POU2AF1, Q16633
Remark: another data set of the same source

Variant | effect of a mutation on the interaction
F133V | with no effect

Variants of: B2
Settings: with obf1_human POU2AF1, Q16633
Remark: another data set of the same source

Variant | effect of a mutation on the interaction
Y87C | with no effect

Variants of: B2
Settings: with obf1_human POU2AF1, Q16633
Remark: another data set of the same source

Variant | effect of a mutation on the interaction
F102C | with no effect

Variants of: B3
Settings: with sem6a_human SEMA6A

Variant | effect of a mutation on the interaction
F102C | with no effect

Variants of: B3
Settings: with sem6a_human SEMA6A
Remark: another data set of the same source

Variant | effect of a mutation on the interaction
Y87C | with no effect

Variants of: B3
Settings: with sem6a_human SEMA6A
Remark: another data set of the same source

Variant | effect of a mutation on the interaction
F133L | with no effect

Variants of: B3
Settings: with sem6a_human SEMA6A
Remark: another data set of the same source

Variant | effect of a mutation on the interaction
F133V | with no effect

Variants of: B4
Settings: with rasf5_human RASSF5, Q8WWW0

Variant | effect of a mutation on the interaction
F102C | with no effect

Variants of: B4
Settings: with rasf5_human RASSF5, Q8WWW0
Remark: another data set of the same source

Variant | effect of a mutation on the interaction
F133V | with no effect

Variants of: B4
Settings: with rasf5_human RASSF5, Q8WWW0
Remark: another data set of the same source

Variant | effect of a mutation on the interaction
F133L | with no effect

Variants of: B4
Settings: with rasf5_human RASSF5, Q8WWW0
Remark: another data set of the same source

Variant | effect of a mutation on the interaction
Y87C | with no effect

Variants of: B5
Settings: with mk13_human MAPK13, O15264

Variant | effect of a mutation on the interaction
F102C | with no effect

Variants of: B5
Settings: with mk13_human MAPK13, O15264
Remark: another data set of the same source

Variant | effect of a mutation on the interaction
F133L | with no effect

Variants of: B5
Settings: with mk13_human MAPK13, O15264
Remark: another data set of the same source

Variant | effect of a mutation on the interaction
F133V | with no effect

Variants of: B5
Settings: with mk13_human MAPK13, O15264
Remark: another data set of the same source

Variant | effect of a mutation on the interaction
Y87C | with no effect

Variants of: B6
Settings: with nox3_human NOX3, Q9HBY0

Variant | effect of a mutation on the interaction
F133V | with no effect

Variants of: B6
Settings: with nox3_human NOX3, Q9HBY0
Remark: another data set of the same source

Variant | effect of a mutation on the interaction
F133L | with no effect

Variants of: B6
Settings: with nox3_human NOX3, Q9HBY0
Remark: another data set of the same source

Variant | effect of a mutation on the interaction
Y87C | with no effect

Variants of: B6
Settings: with nox3_human NOX3, Q9HBY0
Remark: another data set of the same source

Variant | effect of a mutation on the interaction
F102C | with no effect

Variants of: B7
Settings: with rbtn1_human LMO1, P25800

Variant | effect of a mutation on the interaction
F102C | with no effect

Variants of: B7
Settings: with rbtn1_human LMO1, P25800
Remark: another data set of the same source

Variant | effect of a mutation on the interaction
F133V | with no effect
